Laboratory results taken from article PMC11623921 (Nature chemical biology, 2023).

Legend:
[1] = biological target: TnmJ (Streptomyces sp. CB03234); assay: crystal structure
[2] = biological target: TnmJ (Streptomyces sp. CB03234); assay: SEC
TnmJ = assay: isothermal titration calorimetry; type: binding, Streptomyces sp. CB03234; conditions: native substrate

| Substance | stoichiometry N [1] | stoichiometry N [2] | Kd (TnmJ) |
| --- | --- | --- | --- |
| TnmJ (enzyme) | 2 | 2 |  |
| TNM I [compound 8] |  |  | 3.4 µM |
